Measurements: article PMC6090078

Test system: T1, AcrR (His6-AcrR) (Acinetobacter nosocomialis ATCC 17903 (NCTC 8102)?), ORF:b0b0015b
T1 sequence: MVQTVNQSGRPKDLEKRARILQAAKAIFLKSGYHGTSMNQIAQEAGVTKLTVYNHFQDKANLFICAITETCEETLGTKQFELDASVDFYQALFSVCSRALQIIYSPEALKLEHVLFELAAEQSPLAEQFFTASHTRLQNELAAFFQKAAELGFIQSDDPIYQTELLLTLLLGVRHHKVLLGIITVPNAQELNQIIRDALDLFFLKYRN
Experiment: EMSA

## AAAACCCTCTAATAAAAGATTAAAAAAATAAATATTTATAAGTTTTTTTTAATTAATGTACCCATGGGTATATTAATTAAAAAACAAACAAACTATGATGCAAGCATATTGTGCCTTAAAAAATCAGTTTGAATAAGAGCGATAAGAT (double strand) [PacrA/acrR promoter fragment, 148 bp]
  binding: binds
